Test results: the nanobody polyreactivity screen of Harvey et al. (2022)

Assay: yeast display, Sf9 membrane polyspecificity reagent, FACS + sequencing; frameworks hold sequencing errors
Method in brief: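 Galactose induction of a Saccharomyces cerevisiae BJ5465 synthetic nanobody display library ran 36–48 hours. The cells were then stained for 1 hour at 4 °C with 10% biotinylated, detergent-solubilized Sf9 membrane reagent, pulled down on streptavidin microbeads and FACS-sorted into low and high (top ~1%) gates on expression and reagent-binding fluorescence. Labels for polyreactivity follow the gate of origin.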

Row | Sequence | polyreactivity (PSR sort gate)
1 | QVQLVESGGGLVQAGGSLRLSCAASGSTFSSNAMGWYRQAPGKERELVAAIDRGGSTYYADSVKGRFTISRDNAKNTVYLQMNSLKPEDTAVYYCAKGFDFRRRYDYWGQGTQVTVSS | low polyreactivity
2 | QDQLVESGGGLVQAGGSLRLSCAASGRIFVVYAMGCYRQAPGKERELVAAITGGGRTNYADSVKGRFTISRENAKNTVYLQMKSLKPEDTAVYYCAAGTRSDARRYFYWGQGTQVTVSS | low polyreactivity
3 | QVQLLDAGGGLDQAGGSLRLRCAASGSIFRYYPMGWYRQAPGKQREMVASISWSGTSTYYADSVKGRFTISRDNAKNTVYLPRNSLKPEDTAVYYCNKDRWGRYYTRYDYWGQGTQVTVSS | high polyreactivity
4 | QVQLVESGGGLVQAGGSLRLSCAASGRTFYYYAMGWYRQAPGKERELVAAISWSGGRTYYADSVKGRFTISRDNAKNTVYLQMNSLKPEDTAVYYCAASSTGYGGSTYYYWGQGTQVTVSS | low polyreactivity
5 | QVQLVESGGGLVQAGGSLRLSCAASGSTFNDYVMGWYRKAPGKERELVAAISRSGGSTYYADSVKGRFTISRDNAKNTVYIQMNSLKPEDTAFYYCNSDVGYWWGYYGYDYWGQGTQVTVSS | high polyreactivity
6 | QVQLVESGGGLVQAGGSLRLSCAASGLTFDWYTMGWYRQAPGKERELVATINSGGSTDYADSVKGRFTISRDNAKNNVYLQMNSLKPEDTAVYYCNAEYGYSGVGDDYWGQGTQVTVSS | low polyreactivity
7 | QVQLVESGGGLVQAGGSLRLSCAASGRTFEGNAMGWSRQAPGKERELVAAISGSGGRTYYADSVKGRFTISRDNAKNTVYLQMNSLKPEDTAVYYATLYSVYNPWRFNYWGQGTQVTVSS | high polyreactivity
8 | QVQLVESGGGLVQAGGSLRLSCAASGRTFLGYAMGWYRQAPGKERELVAAISGSGDRTYYADSVKGRFTISRDNAKNTVYLQMNSLKPEDTAVYYCNAVTVRYYASYYGRGMDYWGQGTQVTVSS | high polyreactivity
9 | QVQLVESGGGLVQAGGSLRLSCAASGSIFIVYAMGWYRQAPGKERELVAGIRGRGGSTYYADSVKGRFTISRDNAKNTVYLQMNSLKPEDTAVYYCAANPRSYQSPYGYWGQGTQVTVSS | high polyreactivity
10 | QVQLVESGGGLVQAGGSLRLSCAASGLTFGGSAMGWYRQAPGKERELVAGISSSGNTNYADSVKGRFTISRDNAKNTVYLQMISLKPEDTAVYYCAADENITYPVYDMYYWGQGTQVTVSS | low polyreactivity
11 | QVQLVESGGGLVQAGGSLRLICAASGRTFAYNAMGWYRQAPGKERELVAAISYRGTTTYYADSVKGRFTISRDNAKNTVYLQMNSLKPEDTAVYYCNKVGTRFSAYSSGFVLSEYYYWGQGTQVTVSS | high polyreactivity
12 | QVQLVESGGGLVQAGGSLRLSCAASGRTFTTYAMGWYRQAPGKERELVAAISGSGGSTYYADSVKGRFTISRDNAKNTVYLQMNSLKPEDTAVYYCATAYYYHGGYYYPYDDDWGQGTQVTVSS | low polyreactivity
13 | QVQLVESGGGLVQAGGSLRLSCAASGFTFRVYAMGWYRQPPGKERELVAVISGTGGRTYYADSVKGRFTISRDNAKNTVYLQMNSLKPEDTAVYYCAAVGLTPKAIWTSDYWGQGTQVTVSS | high polyreactivity
14 | QVQLVESGGGLVQAGGSLRLSCAASGSTRRYFKGWYRQAPGKERELVAVISRGGSTYYADSVKGRFTISGDNAKNTVYLQMNSLKPEDTAVYYCNVQPVIPRGGDYWGQGTQVTVSS | high polyreactivity
15 | QVQLVESGGGLVQAGGSLRLSCAASGSIFSAYVMGWYRQAPGKERELVAAINRGGNTYYADSVKGRFTISRDNAKNTVYLQMNSLKPEDTAVYYCNAQWYYLRYRYDYWGQGTQVTVSS | high polyreactivity
16 | QVQLVESGGGLVQAGGSLRLSCAASGRIFYYYTMAWYRQAPGKERELVAAISWGGVNTDYADSVKGRFTISRDNAKNTVYLQMNSLKPEDTAVYYCAAGRWSVGTYDYWGQGTQVTVSS | low polyreactivity

Row | Sequence | polyreactivity (PSR sort gate)
17 | QVQLVESGGGLVQAGGSLRLSCAAAGSNFLGYAMGWYRQAPGKERELVANITSSGSTSYADSVKGRFTISRDNAKNTVYLQMNSLKPEVTAVYYCAARFRRTYDYWGQGTQVTVSS | high polyreactivity
18 | QVQLVETGGGLVQAGGSLRISCAASGFIFPSYAMGWYRQAPGKERELVAAITSGGRTYYADSVKGLFTISRDNAKKTVYLQMNSLKPEDYAVYYCAAKSHSKTGTRYYYCGQGTQVTVSS | high polyreactivity
19 | QVQLVESGGGLVQAGGTLRLSCAASGFIFRKYGMGWYRQAPGKERELVAAIRFTGGSTRYADSVKGRFTISRDNAKNTVYLQMNSLKPEDTAVYYCNADRVYVRGRFTYDYWGQGTQVTVSS | low polyreactivity
20 | QVQLVESGGGLVQAGGSLRLSCAASGSIMGWSRQAPGTERELVAAISRGGSTYYADSVKGRFTISRDNAKNTVYLQMNSLKPEDTAVYYCAAKTGGSRSRFEYWGQGTQVTVSS | high polyreactivity
21 | QVQLVESGGGLVQAGGSLRLSCAASGNISPDYGMGWYRQAPGKERELVAVIRWSDDSTYYADSVKGRFTISRDYAKNSVYLQMNSLKPEDTAVYYCSTDDYDAIDLDYWGQGTQVTVSS | low polyreactivity
22 | QVQLEESGGGLVQAGGSLRLSCAASGFSFVTYPMGWYRQAPGKEREFVATISRSGGSTYYADSVKGRFTISRDNAKNTVYLQMNSLKPEDTAVYYCAARGRYPYRYGYWGQGTQVTVSS | high polyreactivity
23 | QVQLVESGGGLVQAGCSRRLSCAASGSIFYHNAMGWYRQAPGKERELVAAISGRGGSTYYADSVKGRFTISRDNAKNTVYLQMNSLKPEDTAVYYCAADARYQNGGLYYWGQGPQVTVSS | high polyreactivity
24 | QLQLVESGGGLVQAGGSLRLSCAASGRILRYYTMGWYRQAPGKERELVAAISRSGGGTYYADSVKGRFTISRDNANNTVDIEMYSLIPEDTSVYYCAAYKPSPYSSDYDYWGEGTQVTVSS | high polyreactivity
25 | QVQLVESGGGLVQAGGSLRLSCAASGGTFYVYAMGWYRQAPGKERELVAAISTSDGITYYADSVKGRFTISRDNAKNTVYLQMNSLNPEDTAVYYCAAVFFSSFTYAYDYWGQGTLVTVSS | high polyreactivity
26 | QVQLVESGGGLVQAGGSLRLSCAASGRTFKFYAMGWYRQAPGKERELVAGIGSGGRTYYADSVKGRFTISRYNAKNTVYLHMNSLKPEDTAVYYCAARQYGPRYTYYYWGQGTQVTVSS | high polyreactivity
27 | QVQLVDSGGGLVQAGGSLRLSCAASGRTFPSYVMGWYRQAPGKERELVAAISWSGGSTSYADSVKGRFTISRDNAKNTVYLQMNSLKPEDTAVYYCNADRRPGGDYWGQGTQVTVSS | low polyreactivity
28 | QVQLVESGGGLVQAGGSLRLSCAASGFTFYNNAMGWYRQAPGKERELVAAISRSGGSTHYADSVKGRFTISRDTAKNTVYLQMNSLKPEDNAVYYCAKVGVLGYYTYYYWGQVTQVTVSS | low polyreactivity
29 | QVQLVESGGGLVQAGGSLRLSCAASGSTFSYYAMGWYRQAPGKERELVAAITTSGGRTYYADSVKGRFTISRDNAKFTVYLQMNSLKPEDTAVYYCNARSGRLGDYWGQGTQVTVSS | high polyreactivity
30 | QVQIVESGGGLVQAVGSLRLSCAAYGSTFCANAMGCYRQAPGKERELVAAIRGTGGSTYADSVKGRFTISRDNAKNTVYLQMNSLKPEDTAVYYCNAKGRGWTAQYDYCGQGTQVTVSS | low polyreactivity
31 | QVQLVESGGGLVQAGGSLRLSCAASGSIFHPYGMGWYRQAPGKVRELVAAMTSSGGDTYYADSVKGRFTISRDNAKNTVYLQMNSLKPEDTAVYYCAATGLPGYYAYDYWGQGTQVTVSS | low polyreactivity
32 | QVQLVESGGGLVQAGGSLRLSCAASGFTPGNVMGWYRQAPGKERELVAAISWSGDSTYYADSVKGRFTISRDNAKNTVYLQMNSLKPEDTAVYYCAARVVGSYRKTYPYGLYYWGQGTQVTVSS | high polyreactivity
